# Like-named read-outs stand apart in the source and are kept apart here.
# How the values were obtained:
# [1] = system: lymph node cells obtained from cancer patients; assay: Proliferation of cancer patients' lymph node cells stimulated with autologous tumor cells (3H-thymidine); format: cell-based, human; conditions: antibody 1 μg/mL (6.7 nM); 3H-thymidine 96 hours later
# From the text: Effects of a human anti-CD40 antibody (21.4.1) on lymph node cells obtained from cancer patients stimulated with autologous tumor cells was examined.
# Lymph node cells and tumors were collected from patients with renal cell carcinoma, non-small cell lung cancer, transitional cell carcinoma of the bladder, colon cancer, prostate cancer, and head and neck cancer. The lymph node cells were placed into culture together with irradiated collagenase treated tumors (recovered from the same patient) in the presence or absence of 21.4.1 (1 μg/mL; 6.7 nM). Proliferation was assessed using ^3H-thymidine 96 hours later. The number of INFγ producing cells was assessed by ELISPOT, following restimulation.
# [2] = system: Fc receptors (FcR) on human peripheral blood leukocytes; assay: 125I-antibody binding to Fc receptors on human leukocytes; conditions: 125I-labelled antibody; 4° C., sodium azide; 21.4.1: excess unlabeled human IgG2 competitor, n=5 donors
# Method: (§1) The binding of an anti-CD40 antibody (21.4.1) to Fc receptors on human and cynomolgus leukocytes was examined.
# (§2) The binding of 21.4.1 to Fc receptors (FcR) on human or cynomolgus peripheral blood leukocytes was determined by using ^125I-21.4.1 and a human IgG1 control mAb. Human leukocytes from normal donors or cynomolgus leukocytes were isolated from whole blood using plasma gel and washed thoroughly to allow dissociation of receptor-bound serum immunoglobulins. Centrifugation through a sucrose cushion was used to separate cell-bound and free antibodies. Studies were performed at 4° C. in the presence of sodium azide to prevent receptor internalization.
# (§3) 21.4.1 was tested for specific binding to FcR by using excess unlabeled human IgG2 isotype matched antibody as a competitor. ^125I-21.4.1 specific binding to FcR on human leukocytes (n=5 donors) was −1.0±8.5%, and specific binding to FcR on cynomolgus leukocytes (n=4) was 15±13%. […] The specific binding of the IgG1 control antibody to FcR on human and cynomolgus leukocytes accounted for 56% and 51% of the total bound radioactivity, respectively.
# [3] = system: Fc receptors (FcR) on cynomolgus peripheral blood leukocytes; assay: 125I-antibody binding to Fc receptors on cynomolgus leukocytes; conditions: 125I-labelled antibody; 4° C., sodium azide; 21.4.1: excess unlabeled human IgG2 competitor, n=4
# Method: as §1, §2, §3
# [4] = system: CD40 receptors on cynomolgus leukocytes; assay: 125I-21.4.1 binding to CD40 receptors on cynomolgus leukocytes; conditions: 500-fold excess unlabeled 21.4.1; total % specific binding minus % binding to FcR
# Method: as §2, §3
# cynomolgus B-cells = assay: Pharmacodynamics: B-cell surface marker upregulation after IV dosing (flow cytometry); format: in vivo, cynomolgus monkeys
# Method: A CD40 antibody (21.4.1) was administered intravenously at various doses (1 mg/kg n=4, 3 mg/kg n=4, 5 mg/kg n=2 and 10 mg/kg n=2) to cynomolgus monkeys. Heparinized blood was drawn from the monkeys at various time points pre- and postdose. The blood was aliquoted and stained. Data were acquired using a Becton Dickinson FACSCalibur and analyzed with CellQuest software. Results were calculated as fold increases in median fluorescence intensity as compared to pre-dose values.
# [5] = Primate anti-human antibody (PAHA) response; format: in vivo, cynomolgus monkeys; conditions: all monkeys in the 3, 5, and 10 mg/kg dose groups; 14 to 28 days following administration
# Method: The observed dose-dependent clearance may be in part due to the binding of 21.4.1 to CD40 receptors that are widely expressed in normal tissues and the subsequent internalization and elimination of the antibody-receptor complex. Development of primate anti-human antibody (PAHA) response may also contribute to the accelerated clearance in some monkeys. PAHA was evaluated only after individual serum concentrations of 21.4.1 reached the lower limit of quantitation (LLOQ, 0.03 μg/mL) since the presence of 21.4.1 in test serum interferes with the assay for PAHA. Anti-21.4.1 antibodies were detected in all monkeys in the 3, 5, and 10 mg/kg dose groups at 14 to 28 days following administration of the antibody.
# [6] = system: CD40(−) erythroleukemic tumor, K562; assay: CD40(−) K562 erythroleukemic tumor growth in SCID-beige mice; format: in vivo, human tumor in SCID-beige mice
# Method: The effects of a CD40 antibody (21.4.1) on the growth of CD40(−) tumors (e.g., erythroleukemia and colon carcinoma) were examined. In particular, K562 tumors were chosen to assess the efficacy of 21.4.1 against a CD40(−) low immunogenic (class I and II negative) tumor.
# SCID-beige mice were injected SC with the CD40(−) erythroleukemic tumor, K562 (ATCC CCL-243) alone or in the presence of human peripheral blood T cells and DCs. Animals received a single IP injection of 21.4.1 either at the time of tumor injection or 5 days later using various dose levels.
# [7] = system: CD40(+) Raji B cell lymphoma; assay: CD40(+) Raji B cell lymphoma growth in SCID-beige mice; format: in vivo, human tumor in SCID-beige mice
# Method: SCID-beige mice were injected subcutaneously with the CD40(+) Raji B cell lymphoma (ATCC CCL-86) (SC) followed by a single dose of 21.4.1 (IP) at the time of tumor injection. Some animals were also injected with human T cells and DC. Tumor growth was assessed on Day 21.
# [8] = cynomolgus monkey, in vivo
# Method: The pharmacokinetic properties of an anti-CD40 antibody (21.4.1) were examined in cynomolgus monkeys following intravenous (IV) administration of a single dose of 1, 3, 5 or 10 mg/kg.
# [9] = mouse, in vivo
# [10] = system: unstimulated human whole blood; assay: Whole-blood cytokine release assay
# Method: An anti-CD40 antibody (21.4.1) was tested for its ability to induce the release of cytokines from unstimulated human whole blood using an in vitro whole blood assay which correlates with induction of antibody-mediated cytokine release in humans. 21.4.1 was tested at 1, 10 and 100 μg/mL, along with a murine anti-human CD3 IgG1 as a positive control that induces cytokine release through an Fc mediated pathway, and LPS as a second positive control that induces cytokines by stimulating macrophages. The donors used included individuals that responded to both the murine antibody and LPS (4 donors), as well as individuals who only responded to the LPS (3 donors). Heparinized whole blood was cultured with 21.4.1 for 5 hours and plasma was collected and analyzed for tumor necrosis factor alpha (TNF-α), interferon gamma (INF-γ) and interleukin-6 (IL-6) by ELISA (using commercially available kits). Cultures were also incubated for 48 hours and analyzed for interleukin-1 beta (IL-1β).
substance,measurement,setting,value
21.4.1: human agonist anti-CD40 antibody; amino acid sequences SEQ ID NOs:5-8; hybridoma deposit PTA-3605,"proliferation of lymph node cells in response to tumor antigen, enhancement",[1],3-4 fold
same,specific binding to FcR on human leukocytes,[2],−1.0±8.5%
same,specific binding to FcR on cynomolgus leukocytes,[3],15±13%
same,specific binding to CD40 receptors on cynomolgus leukocytes,[4],67%
same,"CD23 expression on B-cells, increase vs pre-dose","cynomolgus B-cells; 24 hours after dosing, 3 mg/kg and 10 mg/kg IV",≥ 20 fold
same,dose producing a saturating pharmacodynamic response in cynomolgus B-cells,"cynomolgus B-cells; IV, MHC Class II and CD23 on CD20+ cells",1 mg/kg
same,CD71 (transferrin receptor) level,cynomolgus B-cells; after IV dosing,moderate upregulation
same,CD80 expression,cynomolgus B-cells; after IV dosing,did not change significantly
same,CD86 costimulatory molecule level,cynomolgus B-cells; after IV dosing,moderate upregulation
same,"upregulation of both surface markers (MHC Class II, CD23) persisted, increase",cynomolgus B-cells; while 21.4.1 levels remained above 1 μg/ml,≥ 2 fold
same,anti-21.4.1 antibodies (PAHA),[5],detected
same,amount to cause a 50% inhibition of tumor growth (IC50),"[6]; K562 with human T cells and DC, single IP injection, Day 21",0.005 mg/kg
same,growth of K562 tumor,[6]; in the absence of immune cells,not inhibited
same,anti-tumor activity against CD40(+) tumors when immune cells were present,[7]; Raji,enhanced
same,amount necessary to cause a 50% inhibition of tumor growth,"[7]; Raji co-injected with immune cells (human T cells and DC), single IP dose, Day 21",0.001 mg/kg
same,amount to cause a 50% inhibition of tumor growth (IC50),"[7]; Raji in the absence of immune cells, single IP dose, Day 21",0.02 mg/kg
same,decrease of the 50% inhibitory amount when immune cells co-injected,"[7]; Raji, with vs without immune cells",20 fold
same,duration of exposure of ≧0.1 μg/mL,[8],4 days
same,"volume of distribution at steady state, mean of different doses",[8]; iv,0.0575 L/kg
same,AUC(0-∞),"[8]; iv, 1 mg/kg",298 µg·h/mL
same,CL,"[8]; iv, 1 mg/kg",3.81 mL/h/kg
same,Cmax,"[8]; iv, 1 mg/kg",~20000 ng/mL
same,Vdss,"[8]; iv, 1 mg/kg",0.0757 L/kg
same,t1/2,"[8]; iv, 1 mg/kg",18 h
same,AUC(0-∞),"[8]; iv, 3 mg/kg",2460 µg·h/mL
same,CL,"[8]; iv, 3 mg/kg",1.28 mL/h/kg
same,Vdss,"[8]; iv, 3 mg/kg",0.0459 L/kg
same,t1/2,"[8]; iv, 3 mg/kg",33.6 h
same,AUC(0-∞),"[8]; iv, 5 mg/kg",4790 µg·h/mL
same,CL,"[8]; iv, 5 mg/kg",1.04 mL/h/kg
same,Vdss,"[8]; iv, 5 mg/kg",0.0488 L/kg
same,t1/2,"[8]; iv, 5 mg/kg",33.6 h
same,AUC(0-∞),"[8]; iv, 10 mg/kg",12500 µg·h/mL
same,CL,"[8]; iv, 10 mg/kg",0.798 mL/h/kg
same,Vdss,"[8]; iv, 10 mg/kg",0.0529 L/kg
same,"apparent mean elimination half-life, range over doses","[8]; iv, 10 mg/kg",18 to 48 h
same,"systemic clearance, range over doses","[8]; iv, 10 mg/kg",0.798 to 3.81 mL/h/kg
same,t1/2,"[8]; iv, 10 mg/kg",48 h
same,"volume of distribution at steady state, range over doses","[8]; iv, 10 mg/kg",0.0459 to 0.0757 L/kg
same,T1/2,[9],> 720 h
same,IL-6 in plasma,"[10]; 100 μg/mL, only one donor, 5 hours",90 pg/mL
same,cytokines in plasma of human blood,"[10]; 1 or 10 μg/mL 21.4.1, ELISA",not detected
same,elevation of INFγ or IL-1β,"[10]; any of the samples, 1, 10 and 100 μg/mL",no elevation
same,induction of TNF-α or IL-6 on re-test,[10]; same donor re-tested subsequently,no detectable induction

# — patent US20120263732A1, “CD40 ANTIBODY FORMULATION AND METHODS” (PFIZER INC., priority 2003, published 2012)
